Data from the supplement of paper PMC9170038.

Tested on: MS2 coat protein
Experiment: apparent KD of MS2 coat protein; higher = weaker reporter binding
Conditions: Eterna round: R107
Protocol: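 RNA-MaP round R107: designed RNA switches with theophylline, tryptophan, arginine or FMN aptamers are transcribed on-chip within common flanks. They are titrated with SNAP-549-labelled MS2 coat protein in RNA-MaP buffer (100 mM Tris pH 7.5, 80 mM KCl, 4 mM MgCl2), without ligand or with the indicated ligand. Median apparent KD per design.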

[1] = input ligand: theophylline 20 uM
[2] = input ligand: theophylline 2 mM
[3] = input ligand: tryptophan 2.4 mM

| Sequence | apparent KD of MS2 coat protein (input ligand: arginine 13.2 mM) | apparent KD of MS2 coat protein (input ligand: none) | apparent KD of MS2 coat protein [1] | apparent KD of MS2 coat protein [2] | apparent KD of MS2 coat protein [3] |
| --- | --- | --- | --- | --- | --- |
| ACAAGAGGUGGAAGGAGCGGGAGACAUGAGGAUCACCCAUGUGAAGUUUCGAGAGGAUCAUCCCAGGUAGGUCGCCAUGUCGAAA [ojjomullin] | 0.199 µM | 0.0417 µM | 0.0841 µM | 0.228 µM | 0.0497 µM |
| ACAAUAUUGAGUUUGUCUCAAGUUUCAGAAGGAGCGUGAGGAAUCACAGGUAGGUCGCUGAUAACAUGAGGAUCACCCAUGUAUU [JR_SSArginiA_Sub005] | 0.0261 µM | 0.0357 µM | 0.0431 µM | 0.0451 µM | 0.035 µM |
| ACACAAUACAUGAGGAUCACCCAUGUAAAACGAGGACCGGUACGGCCGCCACUCGAAUACAGGAAACCUCGGAAUAUUAAGUGAA [JR_ExcTryptA_Sub001] | 0.0269 µM | – | 0.0641 µM | 0.0958 µM | – |
| ACACAUGACGCGGCCGCCACUGCAACAUGAGGAUCACCCAUGUCACCCAUGUAUGACAUGAGGAUCAGGACCGGGCGUGUGUGGA [Same State Tryptophan B 3] | 0.615 µM | 0.566 µM | 0.491 µM | 0.58 µM | 0.195 µM |
| ACACAUGAGGAUCACCCAUGUCCAAUAGAUACCAGUGAUACGGUGCACCCUUGGCAGCUGUUACUGAGUGAUGGUUCCCUCGGAA [Same State Theophylline A GF3] | 0.0481 µM | – | 0.0819 µM | – | 0.0587 µM |
| ACACAUGAGGAUCACCCAUGUGCGCUGGAAGGAGCGCAGAAUCAUGCAGGUAGGUCGCCAGUGCCCUCUACUAAAGGGAAAAGAG [Diatsoceri] | 0.0665 µM | 0.072 µM | 0.12 µM | 0.0929 µM | 0.0685 µM |
| ACACAUGAGGAUCACCCAUGUUGCAUAGAUACCAGAUAACGUGAGAUCCCUUGGCAGCUAACUGCAUGAACUUGACAUGCAUCAU [Same State Theophylline A 2] | 0.0442 µM | – | 0.0887 µM | – | 0.0535 µM |
| ACACAUGAGGAUCAUCCAUGUGCCCAUGAAGGAGCGUGGGAAACCACAGGUAGGUCGCAUGACAUGAGGAUCACCCAUGUUUAUU [#03 Exclusion - Arginine A] | 0.0666 µM | 0.204 µM | 0.203 µM | 0.366 µM | 0.209 µM |
| ACACGGGCAUGAGGAUCACCCAUGUAAUAACGAGGACCGGUACGGCCGCCACUCGUGCACCGUGACCUGUACGAAAAGUGCAGGA | 0.0136 µM | 0.0208 µM | 0.0265 µM | 0.0295 µM | 0.00998 µM |
| ACACGUGAGGAUCAUCCAUGUGCCCAUGAAGGAGCGUGGGAAACCACAGGUAGGUCGCAUGACAUGAGGAUCACCCAUGUUUAUU [#04 Exclusion - Arginine A] | 0.0431 µM | 0.0869 µM | 0.109 µM | 0.105 µM | 0.091 µM |
| ACAUCCAGGUUAAUCGUGGGCAUACUCGAUACCAGUAUUUUAAUCUACCCUUGGCAGCGACAUGAGGAUCACCCAUGUGCGAUGA [XTheo A #12] | 0.0117 µM | – | 0.0141 µM | – | 0.0134 µM |
| ACAUGAAGAACAGCGGUGGGCGCGCUCGAUACCAGUACUUUAAAAUACCCUUGGCAGCGACAUGAGGAUCACCCAUGUGAGAUGA [XTheo A #4] | 0.0153 µM | – | 0.0185 µM | – | 0.0185 µM |
| ACAUGAGGAUCACCCAUGUAAAUAACGGAAGGAGCGUGCGAAAGCACAGGUAGGUCGCCGAUAUAAAUAUUGGGUAUUAUAUUAU [#28 Exclusion - Arginine A] | 0.0178 µM | 0.0318 µM | 0.0471 µM | 0.0291 µM | 0.0288 µM |
| ACAUGAGGAUCACCCAUGUAAAUCCUCGAUACCAGCCAAAGGAGAGGCCCUUGGCAGCGGAAAGGCCGGGUAUAAAUGUCCGGCC | 0.0716 µM | – | 0.151 µM | – | 0.125 µM |
| ACAUGAGGAUCACCCAUGUAACAACGGGAAGGAGCGCCAAACAAGGCAGGUAGGUCGCCCACAUGAGGAUCACCCAUGUGUUGGG [Exclusion Arginine A GF 27] | 0.0307 µM | 0.03 µM | 0.0407 µM | 0.0391 µM | 0.0288 µM |
| ACAUGAGGAUCACCCAUGUAAUAAUCAGAAGGAGCGUGGAAUAACACAGGUAGGUCGCUGAUGUUUUGUUAAAAUUAUUCGUGAA [JR_SSArginiA_Sub002] | 0.0117 µM | 0.0135 µM | 0.0169 µM | 0.0129 µM | 0.0143 µM |
| ACAUGAGGAUCACCCAUGUAAUGGCACGAUACCAGCUGAUCCCGUGGCCCUUGGCAGCGUCCGGUGUGGUCCGGCGGGUUGGACG [LLLMULLIN] | 0.0145 µM | 0.0145 µM | 0.0226 µM | 0.0345 µM | 0.0174 µM |
| ACAUGAGGAUCACCCAUGUACAUCACCCGACGAGGACCGGUACGGCCGCCACUCGGGUAUAUAUAUACAUCGGGUGAUUUUACGU [#22 Tryptophan A Same State] | 0.0274 µM | – | 0.0574 µM | 0.0641 µM | – |
| ACAUGAGGAUCACCCAUGUACAUCACCCGACGAGGACCGGUACGGCCGCCACUCGGGUAUAUAUAUACAUCGGGUGGUUUUGCAU [a15jan] | 0.0407 µM | – | 0.0884 µM | 0.04 µM | – |
| ACAUGAGGAUCACCCAUGUACAUGAGGGAAGGAGCGGUACAUGUACCAGGUAGGUCGCCCAACAGCAUCAGCCAUGUACAUCAGC [ggvmullin] | 0.0314 µM | 0.0761 µM | 0.102 µM | 0.0904 µM | 0.069 µM |
